# Laboratory results taken from the supplement of paper PMC9732359.
# ± gives the uncertainty stated by the source.
# Test: protein stability index of a GFP-peptide fusion (yeast GPS) (PSI 1-4); higher = more stable; sorted into four equal gates, so the index is relative within each strain
# Method in brief: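 Each library plasmid carries Cherry plus GFP with a tiled 17-residue yeast protein peptide fused downstream, and the pooled library was carried in yeast. Mid-log cultures in leucine-free medium were sorted into four equal gates by GFP/Cherry ratio. Reads from Illumina sequencing of PCR-amplified plasmids from each gate were assigned to strains by barcodes. Per peptide, the protein stability index was computed as the summed products of gate read frequency and gate number.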
Sequence,protein stability index (doa10∆),protein stability index (pdr5∆),protein stability index (san1∆),protein stability index (ubr1∆)
KMKIQETISKLNEYKRE [SMC2],1.3 ± 0.065,1.48 ± 0.051,2.35 ± 0.084,1.93 ± 0.036
VRTSATFRLPKTLKLAR [RPL25],2.84 ± 0.1,2.35 ± 0.12,1.74 ± 0.26,2.72 ± 0.14
FIRSTNSWFDVTWRTFT [FAS1],1.37 ± 0.12,1.14 ± 0.13,–,1.34 ± 0.15
CRDSDDHKRFIVFHNEF [DIS3],3.02 ± 0.1,3.26 ± 0.084,2.33 ± 0.2,3.23 ± 0.065
YINSDSVNPAMLPGSSN [RPO31],2.6 ± 0.1,2.74 ± 0.099,2.73 ± 0.15,2.83 ± 0.074
DSLSVPKVSAGDSGISP [SIR4],3.24 ± 0.12,3.24 ± 0.11,3.02 ± 0.084,3.18 ± 0.058
KCSTRGLSTDHTTQIVN [YML103C/NUP188],2.9 ± 0.079,2.9 ± 0.085,2.79 ± 0.07,3.01 ± 0.054
ETDNEMNGNGKPGIPRG [SIR3],3.16 ± 0.099,3.11 ± 0.083,3.39 ± 0.053,2.99 ± 0.1
QNPMRDLKIEKLVLNIS [RPL11A],3.04 ± 0.076,3.09 ± 0.08,3.33 ± 0.082,2.84 ± 0.11
RGYWGTNLGQPHSLATK [RPS2],2.68 ± 0.23,3.18 ± 0.16,3.04 ± 0.1,2.85 ± 0.093
KIYRVGKGDDEANGATS [RPL3],3.45 ± 0.071,3.6 ± 0.1,3.67 ± 0.045,3.22 ± 0.11
EDLLHYIEEKHPTIYES [POP4],3.47 ± 0.078,3.4 ± 0.093,3.37 ± 0.077,3.27 ± 0.084
WGAETDELSMIMEHFSQ [RPS12],2.93 ± 0.11,3.12 ± 0.17,3.44 ± 0.071,3.29 ± 0.12
EQDALFITRLAQGLLHL [RPN1],2.88 ± 0.1,2.69 ± 0.12,2.38 ± 0.14,2.29 ± 0.14
PRSDDLEATWNFIEPGI [CDC53],3.04 ± 0.15,3.29 ± 0.13,3.15 ± 0.096,3.02 ± 0.11
ALNKISKYYPGVIIKVE [SNU114],2.04 ± 0.057,1.53 ± 0.07,1.9 ± 0.085,2.33 ± 0.063
LLNILITYGIIKVPTYI [SRB8],1.57 ± 0.083,1.52 ± 0.09,–,1.03 ± 0.047
SIGASIADLASLEQLLG [YCS4],2.84 ± 0.099,2.94 ± 0.064,2.9 ± 0.076,2.92 ± 0.033
KQQGVGLPTDAYVAIEQ [RPN8],2.78 ± 0.083,2.7 ± 0.15,2.89 ± 0.21,3.19 ± 0.1
GKELDSLDLNNLELGGL [PGD1],3.08 ± 0.12,3.25 ± 0.12,2.99 ± 0.085,3.24 ± 0.066
REIDALKKQLHVSHEAM [YIL149C/MLP2],2.88 ± 0.05,2.97 ± 0.047,2.91 ± 0.048,2.82 ± 0.049
TKLIQYEHNGRTLEAIT [CSL4],2.22 ± 0.049,2.48 ± 0.044,2.38 ± 0.055,2.29 ± 0.034
VANSTKAAFIRVNGSEF [RPT3],1.92 ± 0.05,1.69 ± 0.044,1.66 ± 0.082,1.44 ± 0.034
TIKVAGTPLLEVRGQVP [SNU114],2.67 ± 0.08,2.69 ± 0.067,2.94 ± 0.063,2.98 ± 0.069
HSPFPFNRTKGKMVRAQ [PRP8],1.84 ± 0.2,1.16 ± 0.14,–,1.05 ± 0.094

Sequence,protein stability index (doa10∆),protein stability index (pdr5∆),protein stability index (san1∆),protein stability index (ubr1∆)
ETENSESIASSNTYKEE [MCD1],–,2.55 ± 0.29,–,2.89 ± 0.074
DDIFIRYLTLLSNEFTA [ECM29],2.14 ± 0.056,1.91 ± 0.051,2.44 ± 0.074,1.76 ± 0.029
GSIFTHETTFMTAMRLM [YML031W/NDC1],1.88 ± 0.072,2.53 ± 0.083,2.71 ± 0.065,2.64 ± 0.081
YLACKVEECPQYIRTLV [SSN8],1.25 ± 0.14,1.27 ± 0.14,1.68 ± 0.16,1.96 ± 0.17
LNGREVKAILMQRHVKV [RPS4A],1.23 ± 0.081,1.25 ± 0.063,1.39 ± 0.21,1.24 ± 0.051
MHDSNLQNNSDSESDSD [SKP1],2.94 ± 0.11,3.18 ± 0.078,3.06 ± 0.056,3.02 ± 0.068
DFKPPYIYSHVNKVPQN [SWP82],2.16 ± 0.12,2.14 ± 0.11,2.79 ± 0.14,2.62 ± 0.054
AGLDKGISINNMMEHWD [RPO31],3.04 ± 0.13,3.09 ± 0.091,3.02 ± 0.086,3.14 ± 0.05
EQSNSRKRTRSEAEQID [YCG1],3.35 ± 0.19,3.4 ± 0.26,2.81 ± 0.1,–
YGKPTNQGVNELKYQRS [RPL15A],2.9 ± 0.16,3.23 ± 0.17,2.59 ± 0.14,3.03 ± 0.087
QLLIIEKEWENAIRIGE [SRP72],1.44 ± 0.052,1.69 ± 0.054,2.09 ± 0.12,2.21 ± 0.044
AMTAAEHGLHAPAYAWS [CYT1],3.16 ± 0.13,3.31 ± 0.097,2.8 ± 0.13,3.27 ± 0.064
NIMVTIDGCVKIGDLGL [SSN3],3.27 ± 0.16,3.12 ± 0.14,3.5 ± 0.069,3.43 ± 0.052
VDEELGPSIYKTDPAGY [SCL1],3.12 ± 0.084,3.35 ± 0.074,3.29 ± 0.072,3.27 ± 0.083
LERLTLVFCKHITSVPI [GRR1],1.47 ± 0.057,1.42 ± 0.084,1.17 ± 0.14,1.44 ± 0.047
LLEKANNQQRLLLKKLD [SMC3],2.31 ± 0.074,2.56 ± 0.074,2.28 ± 0.06,2.39 ± 0.044
IRRYCDVVAHRQLAGAI [DIS3],1.91 ± 0.077,2.2 ± 0.065,1.99 ± 0.097,2.18 ± 0.1
MPQSFTSIARIGDYILK [QCR7],3.35 ± 0.2,3.33 ± 0.12,3.04 ± 0.15,3.1 ± 0.062
TQLQRGGTSDMNYLLDN [CSI1],2.89 ± 0.097,2.82 ± 0.14,3.2 ± 0.078,3.02 ± 0.078
KTKFQYKFLDQNSDAST [YIL149C/MLP2],3.08 ± 0.1,3.01 ± 0.096,2.94 ± 0.078,3.06 ± 0.08
QIYGFEGLNQRNQVQTE [YGR119C/NUP57],3.16 ± 0.17,2.94 ± 0.22,3.08 ± 0.13,3.39 ± 0.18
SIEFAKREKRVFLKHSL [RPN6],3.24 ± 0.16,3.4 ± 0.17,2.87 ± 0.11,2.7 ± 0.098
PFLNETKPGVYYVPYSK [RPC82],3.09 ± 0.12,2.97 ± 0.13,3.03 ± 0.064,3.36 ± 0.091
DVCKTRFNHLVTRLFFI [YML031W/NDC1],1.79 ± 0.046,1.53 ± 0.039,1.52 ± 0.072,1.77 ± 0.034
